Results from the Human Domainome abundance scans (Beltran et al. 2025).
± gives the uncertainty stated by the source.

Test: abundance fitness (aPCA) (normalised: wild type 0, dead -1); higher = more abundant; growth selection in yeast, the domain comes from the species named
Details: Saccharomyces cerevisiae (strain ATCC 204508 / S288c)

Substance | abundance fitness
E3 ubiquitin-protein ligase RSP5 A347C, P39940 | 0.08 ± 0.095
E3 ubiquitin-protein ligase RSP5 A347D, P39940 | -0.025 ± 0.084
E3 ubiquitin-protein ligase RSP5 A347E, P39940 | -0.034 ± 0.056
E3 ubiquitin-protein ligase RSP5 A347F, P39940 | -0.067 ± 0.19
E3 ubiquitin-protein ligase RSP5 A347G, P39940 | -0.043 ± 0.047
E3 ubiquitin-protein ligase RSP5 A347H, P39940 | -0.048 ± 0.056
E3 ubiquitin-protein ligase RSP5 A347K, P39940 | 0.008 ± 0.053
E3 ubiquitin-protein ligase RSP5 A347L, P39940 | -0.044 ± 0.045
E3 ubiquitin-protein ligase RSP5 A347M, P39940 | 0.089 ± 0.064
E3 ubiquitin-protein ligase RSP5 A347N, P39940 | -0.034 ± 0.059
E3 ubiquitin-protein ligase RSP5 A347P, P39940 | -0.115 ± 0.064
E3 ubiquitin-protein ligase RSP5 A347Q, P39940 | -0.063 ± 0.055
E3 ubiquitin-protein ligase RSP5 A347R, P39940 | -0.031 ± 0.045
E3 ubiquitin-protein ligase RSP5 A347V, P39940 | -0.044 ± 0.046
E3 ubiquitin-protein ligase RSP5 A347W, P39940 | -0.316 ± 0.047
E3 ubiquitin-protein ligase RSP5 A347Y, P39940 | -0.128 ± 0.063
E3 ubiquitin-protein ligase RSP5 D351A, P39940 | -0.731 ± 0.053
E3 ubiquitin-protein ligase RSP5 D351C, P39940 | -0.256 ± 0.067
E3 ubiquitin-protein ligase RSP5 D351E, P39940 | -0.488 ± 0.052
E3 ubiquitin-protein ligase RSP5 D351G, P39940 | -0.89 ± 0.046
E3 ubiquitin-protein ligase RSP5 D351H, P39940 | -0.574 ± 0.21
E3 ubiquitin-protein ligase RSP5 D351K, P39940 | -0.748 ± 0.084
E3 ubiquitin-protein ligase RSP5 D351L, P39940 | -1.08 ± 0.059
E3 ubiquitin-protein ligase RSP5 D351M, P39940 | -0.772 ± 0.13
E3 ubiquitin-protein ligase RSP5 D351P, P39940 | -1.24 ± 0.15
E3 ubiquitin-protein ligase RSP5 D351Q, P39940 | -0.612 ± 0.21

Substance | abundance fitness
E3 ubiquitin-protein ligase RSP5 D351R, P39940 | -0.864 ± 0.05
E3 ubiquitin-protein ligase RSP5 D351S, P39940 | -0.584 ± 0.057
E3 ubiquitin-protein ligase RSP5 D351T, P39940 | -0.966 ± 0.073
E3 ubiquitin-protein ligase RSP5 D351V, P39940 | -1.24 ± 0.068
E3 ubiquitin-protein ligase RSP5 D351W, P39940 | -1.28 ± 0.097
E3 ubiquitin-protein ligase RSP5 D361A, P39940 | -0.269 ± 0.053
E3 ubiquitin-protein ligase RSP5 D361C, P39940 | -0.183 ± 0.1
E3 ubiquitin-protein ligase RSP5 D361E, P39940 | -0.266 ± 0.053
E3 ubiquitin-protein ligase RSP5 D361G, P39940 | -0.534 ± 0.047
E3 ubiquitin-protein ligase RSP5 D361I, P39940 | -0.632 ± 0.15
E3 ubiquitin-protein ligase RSP5 D361K, P39940 | -0.25 ± 0.06
E3 ubiquitin-protein ligase RSP5 D361L, P39940 | -0.641 ± 0.056
E3 ubiquitin-protein ligase RSP5 D361N, P39940 | -0.304 ± 0.085
E3 ubiquitin-protein ligase RSP5 D361P, P39940 | -0.516 ± 0.12
E3 ubiquitin-protein ligase RSP5 D361Q, P39940 | -0.305 ± 0.086
E3 ubiquitin-protein ligase RSP5 D361S, P39940 | -0.409 ± 0.054
E3 ubiquitin-protein ligase RSP5 D361T, P39940 | -0.562 ± 0.065
E3 ubiquitin-protein ligase RSP5 D361V, P39940 | -0.607 ± 0.043
E3 ubiquitin-protein ligase RSP5 D361Y, P39940 | -0.594 ± 0.062
E3 ubiquitin-protein ligase RSP5 E332A, P39940 | 0.03 ± 0.051
E3 ubiquitin-protein ligase RSP5 E332C, P39940 | -0.116 ± 0.08
E3 ubiquitin-protein ligase RSP5 E332D, P39940 | 0.038 ± 0.074
E3 ubiquitin-protein ligase RSP5 E332F, P39940 | -0.165 ± 0.12
E3 ubiquitin-protein ligase RSP5 E332G, P39940 | -0.066 ± 0.046
E3 ubiquitin-protein ligase RSP5 E332H, P39940 | -0.551 ± 0.13
E3 ubiquitin-protein ligase RSP5 E332I, P39940 | -0.225 ± 0.087

Substance | abundance fitness
E3 ubiquitin-protein ligase RSP5 E332K, P39940 | -0.046 ± 0.064
E3 ubiquitin-protein ligase RSP5 E332L, P39940 | -0.459 ± 0.051
E3 ubiquitin-protein ligase RSP5 E332M, P39940 | -0.093 ± 0.069
E3 ubiquitin-protein ligase RSP5 E332P, P39940 | -0.128 ± 0.057
E3 ubiquitin-protein ligase RSP5 E332Q, P39940 | -0.359 ± 0.061
E3 ubiquitin-protein ligase RSP5 E332R, P39940 | -0.36 ± 0.043
E3 ubiquitin-protein ligase RSP5 E332S, P39940 | -0.179 ± 0.053
E3 ubiquitin-protein ligase RSP5 E332T, P39940 | -0.14 ± 0.069
E3 ubiquitin-protein ligase RSP5 E332V, P39940 | -0.07 ± 0.047
E3 ubiquitin-protein ligase RSP5 E332W, P39940 | -0.493 ± 0.046
E3 ubiquitin-protein ligase RSP5 E332Y, P39940 | -0.184 ± 0.066
E3 ubiquitin-protein ligase RSP5 E338A, P39940 | -0.333 ± 0.056
E3 ubiquitin-protein ligase RSP5 E338C, P39940 | -0.476 ± 0.16
E3 ubiquitin-protein ligase RSP5 E338D, P39940 | -0.022 ± 0.13
E3 ubiquitin-protein ligase RSP5 E338F, P39940 | -0.73 ± 0.14
E3 ubiquitin-protein ligase RSP5 E338G, P39940 | -0.454 ± 0.045
E3 ubiquitin-protein ligase RSP5 E338H, P39940 | -0.349 ± 0.1
E3 ubiquitin-protein ligase RSP5 E338K, P39940 | -0.463 ± 0.049
E3 ubiquitin-protein ligase RSP5 E338L, P39940 | -0.499 ± 0.044
E3 ubiquitin-protein ligase RSP5 E338M, P39940 | -0.402 ± 0.047
E3 ubiquitin-protein ligase RSP5 E338N, P39940 | -0.501 ± 0.09
E3 ubiquitin-protein ligase RSP5 E338P, P39940 | -0.874 ± 0.083
E3 ubiquitin-protein ligase RSP5 E338Q, P39940 | -0.027 ± 0.065
E3 ubiquitin-protein ligase RSP5 E338R, P39940 | -0.626 ± 0.045
E3 ubiquitin-protein ligase RSP5 E338S, P39940 | -0.19 ± 0.046
E3 ubiquitin-protein ligase RSP5 E338V, P39940 | -0.278 ± 0.053

Substance | abundance fitness
E3 ubiquitin-protein ligase RSP5 E338W, P39940 | -0.978 ± 0.11
E3 ubiquitin-protein ligase RSP5 E338Y, P39940 | -0.632 ± 0.075
E3 ubiquitin-protein ligase RSP5 E344A, P39940 | -0.144 ± 0.045
E3 ubiquitin-protein ligase RSP5 E344C, P39940 | -0.264 ± 0.097
E3 ubiquitin-protein ligase RSP5 E344D, P39940 | 0.149 ± 0.087
E3 ubiquitin-protein ligase RSP5 E344F, P39940 | -0.309 ± 0.072
E3 ubiquitin-protein ligase RSP5 E344G, P39940 | -0.038 ± 0.045
E3 ubiquitin-protein ligase RSP5 E344H, P39940 | 0.116 ± 0.16
E3 ubiquitin-protein ligase RSP5 E344I, P39940 | -0.215 ± 0.091
E3 ubiquitin-protein ligase RSP5 E344K, P39940 | -0.222 ± 0.063
E3 ubiquitin-protein ligase RSP5 E344L, P39940 | -0.31 ± 0.047
E3 ubiquitin-protein ligase RSP5 E344M, P39940 | -0.103 ± 0.06
E3 ubiquitin-protein ligase RSP5 E344N, P39940 | -0.032 ± 0.081
E3 ubiquitin-protein ligase RSP5 E344P, P39940 | -0.428 ± 0.071
E3 ubiquitin-protein ligase RSP5 E344Q, P39940 | -0.081 ± 0.053
E3 ubiquitin-protein ligase RSP5 E344R, P39940 | -0.256 ± 0.047
E3 ubiquitin-protein ligase RSP5 E344S, P39940 | -0.168 ± 0.048
E3 ubiquitin-protein ligase RSP5 E344T, P39940 | -0.088 ± 0.051
E3 ubiquitin-protein ligase RSP5 E344V, P39940 | -0.308 ± 0.054
E3 ubiquitin-protein ligase RSP5 E344W, P39940 | -0.338 ± 0.046
E3 ubiquitin-protein ligase RSP5 F341A, P39940 | -0.072 ± 0.049
E3 ubiquitin-protein ligase RSP5 F341C, P39940 | 0.051 ± 0.069
E3 ubiquitin-protein ligase RSP5 F341E, P39940 | 0.068 ± 0.064
E3 ubiquitin-protein ligase RSP5 F341G, P39940 | -0.284 ± 0.044
E3 ubiquitin-protein ligase RSP5 F341I, P39940 | -0.027 ± 0.092
